In the assay the target is FLAG-tagged Ang2 mutant A449 (alanine) (human) (UniProt O15123). Briefly: ELISA, scFv coated, FLAG-tagged mutant Ang2, anti-FLAG-HRP. (In an ELISA, binding on a coated surface is turned into a signal by an enzyme label.)
Sequence of UniProt O15123 (O15123 other isoform, or with tags, fused parts or gaps mutant): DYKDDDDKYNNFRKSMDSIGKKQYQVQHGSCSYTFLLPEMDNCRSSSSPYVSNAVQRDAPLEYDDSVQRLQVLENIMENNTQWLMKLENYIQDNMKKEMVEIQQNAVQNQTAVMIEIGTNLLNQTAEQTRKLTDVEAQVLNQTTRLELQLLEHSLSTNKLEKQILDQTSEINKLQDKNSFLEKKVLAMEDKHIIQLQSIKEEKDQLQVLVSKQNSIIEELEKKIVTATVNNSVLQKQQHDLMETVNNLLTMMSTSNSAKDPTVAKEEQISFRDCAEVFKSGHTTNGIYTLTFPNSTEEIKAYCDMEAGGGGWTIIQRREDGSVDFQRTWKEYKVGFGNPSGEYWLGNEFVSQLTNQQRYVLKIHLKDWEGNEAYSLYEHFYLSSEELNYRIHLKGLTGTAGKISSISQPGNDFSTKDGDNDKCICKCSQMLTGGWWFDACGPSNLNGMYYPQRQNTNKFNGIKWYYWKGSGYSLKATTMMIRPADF

B1: SAIT-ANG2-AB-2-E6 (scFv form) (scFv, V domains shown)
VH: EVQLLESGGGLVQTGGSLRLSCAASGFTFSDYAMSWVRQAPGKGLEWVSAIYPDSGNKYYADSVKGRFTISRDNSKNTLYLQMNSLRAEDTAVYYCARHSSDPKVKSGYYDDGMDVWGQGTLVAVSS
VL: QSVLTQPPSASGTPGQRVTISCSGSSSNIGNNAVNWYQQLPGTAPKLLIYADSNRPSGVPDRFSGSKSGTSASLAISGLRSEDEADYYCGSWDYSLSGYVFGGGTKLTVLG
Turning to B1, the Relative binding (%) with Mutant Ang2 compared to the binding with native Ang2 was 3.3%.

B2: SAIT-ANG2-AB-4-F11 (scFv form) (scFv, V domains shown)
VH: EVQLLESGGGLVQTGGSLRLSCAASGFTFSDYAMSWVRQAPGKGLEWVSSIYPDDGNTYYADSVKGRFTISRDNSKNTLYLQMNSLRAEDTAVYYCAKHPVRLNLHPMYYYYGMDVWGQGTLVTVSS
VL: QSVLTQPPSASGTPGQRVTISCTGSSSNIGNNAVSWYQQLPGTAPKLLIYSDSQRPSGVPDRFSGSKSGTSASLAISGLRSEDEADYYCATWDYSLSAYVFGGGTKLTVLG
On to B2, for which the Relative binding (%) with Mutant Ang2 compared to the binding with native Ang2 came to 16.7%.

B3: SAIT-ANG2-AB-7-C9 (scFv form) (scFv, V domains shown)
VH: EVQLLESGGGLVQPGGSLRLSCAASGFTFSNYAMSWVRQAPGKGLEWVSAISSGGGNIYYADSVKGRFTISRDNSKNTLYLQMNSLRAEDTAVYYCAKSGIQPSPPSMSSAYAMDVWGQGTLVTVSS
VL: QSVLTQPPSASGTPGQRVTISCSGSSSNIGNNDVYWYQQLPGTAPKLLIYANSHRPSGVPDRFSGSKSGTSASLAISGLRSEDEADYYCGTWDYSLSGYVFGGGTKLTVLG
For B3, the Relative binding (%) with Mutant Ang2 compared to the binding with native Ang2 is 14.5%.

B4: SAIT-ANG2-AB-4-F5 (scFv form) (scFv, V domains shown)
VH: EVQLLESGGGLVQPGGSLRLSCAASGFTFSDYDMSWVRQAPGKGLEWVSSISHGDSNKYYADSVKGRFTISRDNSKNTLYLQMNSLRAEDTAVYYCAKSSGIQESPPTYYYYGMDVWGQGTLVTVSS
VL: QSVLTQPPSASGTPGQRVTISCSGSSSNIGSNAVNWYQQLPGTAPKLLIYADSNRPSGVPDRFSGSKSGTSASLAISGLRSEDEADYYCGSWDYSLSGYVFGGGTKLTVLG
B4 displayed a Relative binding (%) with Mutant Ang2 compared to the binding with native Ang2 of 14%.

B5: SAIT-ANG2-AB-4-C11 (scFv form) (scFv, V domains shown)
VH: EVQLLESGGGLVQPGGSLRLSCAASGFTFSDYAMSWVRQAPGKGLEWVSSIYPDDGNTYYADSVKGRFTISRDNSKNTLYLQMNSLRAEDTAVYYCARHTSHHTSIDGYYYYGMDGWGQGTLVTVSS
VL: QSVLTQPPSASGTPGQRVTISCTGSSSNIGNNDVSWYQQLPGTAPKLLIYSDSKRPSGVPDRFSGSKSGTSASLAISGLRSEDEADYYCGSWDYSLSGYVFGGGTKLTVLG
Consider B5, for which the Relative binding (%) with Mutant Ang2 compared to the binding with native Ang2 is 4.8%.

B6: SAIT-ANG2-AB-3-D3 (scFv form) (scFv, V domains shown)
VH: EVQLLESGGGLVQPGGSLRLSCAASGFTFSDYDMSWVRQAPGKGLEWVSGISSDDGNTYYADSVKGRFTISRDNSKNTLYLQMNSLRAEDTAVYYCARPTIDKYTLRGYYSYGMDVWGQGTLVTVSS
VL: QSVLTQPPSASGTPGQRVTISCTGSSSNIGSNYVSWYQQLPGTAPKLLIYSDNKRPSGVPDRFSGSKSGTSASLAISGLRSEDEADYYCGTWDDSLNGYVFGGGTKLTVLG
In turn, B6 gave a Relative binding (%) with Mutant Ang2 compared to the binding with native Ang2 of 101%.
